Experimental data published in US12747297 (dated 2026).
Residue numbers refer to the chain shown, from its start. Blank lines part the entries; values can stand above or below the binder they belong to.

Legend:
sIL-4Rα [1] = target: sIL-4Rα (human)
sIL-4Rα [2] = target: sIL-4Rα (human); assay: BLI

sIL-4Rα (human), sequence (chain, as listed by the source): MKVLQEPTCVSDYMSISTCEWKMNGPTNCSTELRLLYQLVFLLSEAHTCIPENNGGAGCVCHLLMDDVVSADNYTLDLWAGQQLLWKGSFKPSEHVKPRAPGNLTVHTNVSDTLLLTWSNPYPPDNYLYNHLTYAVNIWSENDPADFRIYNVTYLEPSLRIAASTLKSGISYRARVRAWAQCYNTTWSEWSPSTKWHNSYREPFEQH

B1: 5R65.39 (antibody, V domains shown)
VH: QVQLVQSGAEVKKPGSSVKVSCKASGYTFTSYWINWVRQAPGQGLEWIGHIYPNKNENYYNHKFKDKATLTVDKSTNTAYMELSSLRSEDTAVYYCTREFYGRSRYSAMDYWGQGTTLTVSS
VL: DIQMTQSPSTLSASVGDRVTITCKASQNVGTAVAWYQQKPGKAPKLLIYWASTRHTGVPDRFSGSGSGTDFTLTISSLQPDDFATYYCQQFGRYPYTFGSGTKVEVK
- binding result (sIL-4Rα [1]): no binding

B2: 5R65.7 (antibody, V domains shown)
VH: B1 VH with S104Q, R105Y, S107Q
VL: B1 VL
- binding result (sIL-4Rα [1]): no binding

B7: 4R.N8 (antibody, V domains shown)
VH: EVQLLESGGGLVQPGGSLRLSCAASGFTFSRHAMAWVRQAPGKGLEWVSAITMSGRSIYYADSVKGRFTISRDNSKNTLYLQMNSLRAEDTAVYYCARVHRAFDYWGQGTLVTVSS
VL: QSVLTQPPSASGTPGQRVTISCSGSPLFPDSGSFNWYQQLPGTAPKLLIYADSHRPSGVPDRFSGSKSGTSASLAISGLRSEDEADYYCGTWDYSLSRYVLGGGTKLTVLG
- Kd (sIL-4Rα [2]): 0.0802 nM

B8: 4R.N2 (antibody, V domains shown)
VH: B7 VH with M53A, A61G
VL: B7 VL with R98A
- Kd (sIL-4Rα [2]): 0.108 nM

Results, then the binder that gave them:

- binding result (sIL-4Rα [1]): no binding
B3: 5R65 (antibody, V domains shown)
VH: B1 VH with E99D, F100Y, R105Y, S107Y
VL: B1 VL

- binding result (sIL-4Rα [1]): no binding
B4: 5R65.10 (antibody, V domains shown)
VH: B1 VH with F100Y, R105Y, S107A
VL: B1 VL

- binding result (sIL-4Rα [1]): no binding
B5: 5R65.18 (antibody, V domains shown)
VH: B1 VH with F100Y, S104T, R105Y
VL: B1 VL

- binding result (sIL-4Rα [1]): no binding
B6: 5R65.14 (antibody, V domains shown)
VH: B1 VH with F100H, S104P, R105Y, S107N
VL: B1 VL
